From the supplement of paper PMC9732359
± gives the uncertainty stated by the source.

Experiment: protein stability index of a GFP-peptide fusion (yeast GPS) (PSI 1-4); higher = more stable; sorted into four equal gates, so the index is relative within each strain
Method in brief: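 Tiled yeast protein peptides of 17 residues were each joined downstream of GFP, on plasmids that also express Cherry. The pooled library was maintained in yeast, and mid-log cultures in leucine-free medium were sorted into four equal gates on the GFP/Cherry ratio. Plasmids from every gate were amplified by PCR and sequenced on Illumina, with barcodes linking reads to strains. The protein stability index of a peptide is its gate-number-weighted read frequency summed over the gates.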

KQRTKKEDKSEAIDGNG [SNF2]
protein stability index (doa10∆): 3.55 ± 0.13
protein stability index (pdr5∆): 3.36 ± 0.075
protein stability index (san1∆): 3.17 ± 0.073
protein stability index (ubr1∆): 3.19 ± 0.072

ARIFEFPKTTVAALRFT [RPL18A]
protein stability index (doa10∆): 1.94 ± 0.11
protein stability index (pdr5∆): 1.67 ± 0.076
protein stability index (san1∆): 2 ± 0.19
protein stability index (ubr1∆): 1.79 ± 0.098

PNIHQNLLPKKSAKTAK [HTA2]
protein stability index (doa10∆): 2.88 ± 0.19
protein stability index (pdr5∆): 3.09 ± 0.29
protein stability index (ubr1∆): 3 ± 0.14

ARYNWICNPVHKHREAR [RPL15B]
protein stability index (doa10∆): 2.94 ± 0.083
protein stability index (pdr5∆): 2.68 ± 0.088
protein stability index (san1∆): 2.36 ± 0.11
protein stability index (ubr1∆): 3.04 ± 0.095

TTDMISVLYQLSTSAFM [YML031W/NDC1]
protein stability index (doa10∆): 1.42 ± 0.095
protein stability index (pdr5∆): 1.64 ± 0.14
protein stability index (san1∆): 1.75 ± 0.24
protein stability index (ubr1∆): 1.14 ± 0.11

TQEFSKNYTTETDNEMN [SIR3]
protein stability index (doa10∆): 3.31 ± 0.12
protein stability index (pdr5∆): 3.49 ± 0.064
protein stability index (san1∆): 3.64 ± 0.075
protein stability index (ubr1∆): 3.29 ± 0.055

TFVYILEKLIFDMTNHY [SRB8]
protein stability index (doa10∆): 1.71 ± 0.061
protein stability index (pdr5∆): 1.93 ± 0.042
protein stability index (san1∆): 1.69 ± 0.1
protein stability index (ubr1∆): 1.69 ± 0.039

KSNTIPVTSIPSTNKKL [GAL11]
protein stability index (doa10∆): 2.67 ± 0.076
protein stability index (pdr5∆): 2.87 ± 0.073
protein stability index (san1∆): 2.9 ± 0.044
protein stability index (ubr1∆): 2.96 ± 0.057

NEIANSIIQSKQDCVDW [BRR2]
protein stability index (doa10∆): 2.61 ± 0.069
protein stability index (pdr5∆): 2.87 ± 0.071
protein stability index (san1∆): 2.73 ± 0.071
protein stability index (ubr1∆): 2.88 ± 0.079

KIMQEATQSGGVRPFGV [PRE8]
protein stability index (pdr5∆): 2.45 ± 0.29
protein stability index (ubr1∆): 2.95 ± 0.1

EEKPGLIITRKAFKNNS [SMC4]
protein stability index (doa10∆): 2.89 ± 0.086
protein stability index (pdr5∆): 2.88 ± 0.097
protein stability index (san1∆): 2.82 ± 0.064
protein stability index (ubr1∆): 2.94 ± 0.079

ETAKMIENMTKEKVSNG [FAS2]
protein stability index (doa10∆): 3.41 ± 0.3
protein stability index (pdr5∆): 3.28 ± 0.13
protein stability index (san1∆): 3.57 ± 0.091
protein stability index (ubr1∆): 3.02 ± 0.11

ELDPECQLQNSDNSEEE [RRP43]
protein stability index (doa10∆): 3.14 ± 0.075
protein stability index (pdr5∆): 2.95 ± 0.066
protein stability index (san1∆): 2.94 ± 0.054
protein stability index (ubr1∆): 3 ± 0.063

KELKEKEAAESPEEADV [PUP2]
protein stability index (doa10∆): 3.44 ± 0.082
protein stability index (pdr5∆): 3.56 ± 0.086
protein stability index (san1∆): 3.02 ± 0.057
protein stability index (ubr1∆): 3.32 ± 0.054

GNAVTVTEDGTVVTVVS [RPL22A]
protein stability index (doa10∆): 1.38 ± 0.044
protein stability index (pdr5∆): 1.67 ± 0.078
protein stability index (san1∆): 1.45 ± 0.11
protein stability index (ubr1∆): 1.84 ± 0.065

VARTFWASKYGQEYPRI [BRR2]
protein stability index (doa10∆): 2.42 ± 0.15
protein stability index (pdr5∆): 2.38 ± 0.17
protein stability index (san1∆): 2.32 ± 0.17
protein stability index (ubr1∆): 3.06 ± 0.094

LKWSACTSLMDIIVAIK [IRR1]
protein stability index (doa10∆): 2.65 ± 0.14
protein stability index (pdr5∆): 2.72 ± 0.057
protein stability index (san1∆): 2.44 ± 0.16
protein stability index (ubr1∆): 2.83 ± 0.071

RPNGRKDHDLKIPLPEV [POP1]
protein stability index (doa10∆): 3.06 ± 0.055
protein stability index (pdr5∆): 3.18 ± 0.058
protein stability index (san1∆): 2.99 ± 0.073
protein stability index (ubr1∆): 3.15 ± 0.065

ESLTFNEFQLQWGKYQT [SWI1]
protein stability index (doa10∆): 2.86 ± 0.049
protein stability index (pdr5∆): 2.93 ± 0.047
protein stability index (san1∆): 2.67 ± 0.045
protein stability index (ubr1∆): 2.91 ± 0.034

DIYFKLKKLEKEYELLT [RPT3]
protein stability index (doa10∆): 2.74 ± 0.074
protein stability index (pdr5∆): 2.51 ± 0.081
protein stability index (san1∆): 2.29 ± 0.14
protein stability index (ubr1∆): 1.98 ± 0.057

GGQGNTDDYFEELRDLY [FAS1]
protein stability index (doa10∆): 3.22 ± 0.088
protein stability index (pdr5∆): 3.51 ± 0.073
protein stability index (san1∆): 3.3 ± 0.057
protein stability index (ubr1∆): 3.28 ± 0.059

TQDESEIKDAETSCDNY [SMC4]
protein stability index (doa10∆): 2.26 ± 0.083
protein stability index (pdr5∆): 2.62 ± 0.073
protein stability index (san1∆): 3.4 ± 0.056
protein stability index (ubr1∆): 2.98 ± 0.053

REIQIDAVLKIFSFHQD [SRB8]
protein stability index (doa10∆): 3.27 ± 0.08
protein stability index (pdr5∆): 3.12 ± 0.09
protein stability index (san1∆): 3.06 ± 0.052
protein stability index (ubr1∆): 3.04 ± 0.04

NLFGATANANKPAFSFG [YJL041W/NSP1]
protein stability index (doa10∆): 3.05 ± 0.096
protein stability index (pdr5∆): 3.18 ± 0.081
protein stability index (san1∆): 3.14 ± 0.074
protein stability index (ubr1∆): 3.12 ± 0.057

MAGKVLILTSHNMKAYY [BRR2]
protein stability index (doa10∆): 2.1 ± 0.06
protein stability index (pdr5∆): 2.46 ± 0.058
protein stability index (san1∆): 1.6 ± 0.094
protein stability index (ubr1∆): 2.4 ± 0.068

RLKQVFNRALDQSISKL [NNF1]
protein stability index (doa10∆): 2.05 ± 0.056
protein stability index (pdr5∆): 2.11 ± 0.039
protein stability index (san1∆): 1.93 ± 0.043
protein stability index (ubr1∆): 2.16 ± 0.036

ISLVDDIINAVNEIMYK [MTW1]
protein stability index (doa10∆): 2.9 ± 0.073
protein stability index (pdr5∆): 2.91 ± 0.081
protein stability index (san1∆): 2.83 ± 0.053
protein stability index (ubr1∆): 3.1 ± 0.095

FDPVYTTVITVFLEFSL [YML103C/NUP188]
protein stability index (doa10∆): 1.45 ± 0.043
protein stability index (pdr5∆): 1.69 ± 0.043
protein stability index (san1∆): 1.8 ± 0.072
protein stability index (ubr1∆): 1.62 ± 0.023

AESEAITVTAKQQPTMQ [SWI3]
protein stability index (doa10∆): 3.14 ± 0.083
protein stability index (pdr5∆): 3.22 ± 0.063
protein stability index (san1∆): 2.88 ± 0.071
protein stability index (ubr1∆): 3.04 ± 0.035

MGEAQTGANFDDVERGV [REC8]
protein stability index (doa10∆): 3.37 ± 0.093
protein stability index (pdr5∆): 2.98 ± 0.11
protein stability index (san1∆): 3.52 ± 0.17
protein stability index (ubr1∆): 3.24 ± 0.081

TGMEPGKTSFFQALGVP [RPP0]
protein stability index (doa10∆): 2.89 ± 0.13
protein stability index (pdr5∆): 3.2 ± 0.098
protein stability index (san1∆): 3.23 ± 0.13
protein stability index (ubr1∆): 3.17 ± 0.073

EGDFLKSIIGKLTAERA [POP1]
protein stability index (doa10∆): 1.63 ± 0.14
protein stability index (pdr5∆): 3.23 ± 0.082
protein stability index (san1∆): 2.1 ± 0.11
protein stability index (ubr1∆): 3.03 ± 0.12

VKVKVSYQKLLKNYVLN [PRP8]
protein stability index (doa10∆): 1.33 ± 0.043
protein stability index (pdr5∆): 1.36 ± 0.035
protein stability index (san1∆): 1.46 ± 0.062
protein stability index (ubr1∆): 1.63 ± 0.036

TATLAWGVNLPAHTVII [BRR2]
protein stability index (doa10∆): 1.26 ± 0.065
protein stability index (pdr5∆): 1.4 ± 0.067
protein stability index (san1∆): 1.81 ± 0.089
protein stability index (ubr1∆): 1.79 ± 0.064

FANYKLLLKKIIKDYVL [SRB4]
protein stability index (doa10∆): 2.41 ± 0.069
protein stability index (pdr5∆): 2.24 ± 0.068
protein stability index (san1∆): 1.97 ± 0.09
protein stability index (ubr1∆): 1.86 ± 0.035

QPSDVMFNDLNSMDISM [MED2]
protein stability index (doa10∆): 2.63 ± 0.043
protein stability index (pdr5∆): 2.99 ± 0.053
protein stability index (san1∆): 3.11 ± 0.043
protein stability index (ubr1∆): 2.76 ± 0.048

ILTDLVNYRHFKAMEDV [ITC1]
protein stability index (doa10∆): 2.94 ± 0.14
protein stability index (pdr5∆): 2.98 ± 0.11
protein stability index (san1∆): 3.28 ± 0.068
protein stability index (ubr1∆): 3.39 ± 0.063

LSEATESDLYKLKECPF [RPB2]
protein stability index (doa10∆): 3.12 ± 0.11
protein stability index (pdr5∆): 2.91 ± 0.19
protein stability index (san1∆): 3.23 ± 0.1
protein stability index (ubr1∆): 2.91 ± 0.1

KVDINADSAVNRQTLMF [PRP28]
protein stability index (doa10∆): 3.32 ± 0.06
protein stability index (pdr5∆): 3.32 ± 0.072
protein stability index (san1∆): 3.08 ± 0.055
protein stability index (ubr1∆): 3.17 ± 0.052

LTLLERKWVIFITKHLP [NUT1]
protein stability index (doa10∆): 2.59 ± 0.089
protein stability index (pdr5∆): 1.68 ± 0.064
protein stability index (san1∆): 1.45 ± 0.13
protein stability index (ubr1∆): 2.57 ± 0.079

NSKPEKSSDSNDSNPSF [YLR335W/NUP2]
protein stability index (doa10∆): 2.47 ± 0.056
protein stability index (pdr5∆): 2.62 ± 0.064
protein stability index (san1∆): 2.25 ± 0.061
protein stability index (ubr1∆): 2.76 ± 0.036

NENETRDKVCKQINEAR [PGD1]
protein stability index (doa10∆): 3.14 ± 0.14
protein stability index (pdr5∆): 3.58 ± 0.19
protein stability index (san1∆): 3.28 ± 0.079
protein stability index (ubr1∆): 3.09 ± 0.1

DLEEAYATQVKTDNTVD [RPT3]
protein stability index (doa10∆): 2.19 ± 0.18
protein stability index (pdr5∆): 2.58 ± 0.091
protein stability index (san1∆): 2.47 ± 0.14
protein stability index (ubr1∆): 2.79 ± 0.1

LPKYKEKKAASAKQTAP [MED7]
protein stability index (doa10∆): 2.71 ± 0.095
protein stability index (pdr5∆): 2.97 ± 0.078
protein stability index (san1∆): 2.74 ± 0.056
protein stability index (ubr1∆): 2.61 ± 0.066

KKNPNWLEEYHPKLIKN [FAS1]
protein stability index (doa10∆): 2.05 ± 0.087
protein stability index (pdr5∆): 1.94 ± 0.061
protein stability index (san1∆): 1.97 ± 0.084
protein stability index (ubr1∆): 2.14 ± 0.046

SLYTSREPRVVSALQML [PUP1]
protein stability index (doa10∆): 2.66 ± 0.11
protein stability index (pdr5∆): 2.86 ± 0.065
protein stability index (san1∆): 3.03 ± 0.061
protein stability index (ubr1∆): 2.92 ± 0.048

SEVGNCSGSGMGGVSAL [FAS2]
protein stability index (doa10∆): 3.15 ± 0.075
protein stability index (pdr5∆): 3.38 ± 0.064
protein stability index (san1∆): 3.29 ± 0.056
protein stability index (ubr1∆): 3.31 ± 0.05

GNVIQFIYGEDGMDAAH [RPO21]
protein stability index (doa10∆): 2.89 ± 0.065
protein stability index (pdr5∆): 2.58 ± 0.06
protein stability index (san1∆): 3.2 ± 0.063
protein stability index (ubr1∆): 3.32 ± 0.042

GEEDADEEETAEGQTNS [RPN1]
protein stability index (doa10∆): 3.26 ± 0.18
protein stability index (pdr5∆): 3.16 ± 0.26
protein stability index (san1∆): 3.01 ± 0.14

QNTVPNVLNQINQIFSP [GAL11]
protein stability index (doa10∆): 2.63 ± 0.039
protein stability index (pdr5∆): 2.5 ± 0.033
protein stability index (san1∆): 2.4 ± 0.038
protein stability index (ubr1∆): 2.44 ± 0.032

EIDTILSTLRMEADPSL [RPN9]
protein stability index (doa10∆): 3.04 ± 0.24
protein stability index (pdr5∆): 3.04 ± 0.21
protein stability index (san1∆): 2.56 ± 0.13
protein stability index (ubr1∆): 2.67 ± 0.087

YKCTAAMEKYLLSKSKI [MTW1]
protein stability index (doa10∆): 2.21 ± 0.038
protein stability index (pdr5∆): 2.58 ± 0.056
protein stability index (san1∆): 2.44 ± 0.049
protein stability index (ubr1∆): 2.69 ± 0.03

KDVLAQTSVTTNFNEIT [SWP82]
protein stability index (doa10∆): 2.3 ± 0.079
protein stability index (pdr5∆): 2.75 ± 0.06
protein stability index (san1∆): 2.7 ± 0.071
protein stability index (ubr1∆): 2.76 ± 0.045
